T1: p23 (Homo sapiens, UniProt Q15185 1-160)
T1 sequence: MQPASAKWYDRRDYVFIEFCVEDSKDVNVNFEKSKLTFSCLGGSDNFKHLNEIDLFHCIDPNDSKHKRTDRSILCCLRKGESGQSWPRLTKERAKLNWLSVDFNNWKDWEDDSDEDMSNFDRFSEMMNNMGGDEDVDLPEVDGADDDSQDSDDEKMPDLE

B1: p21 20-mer DNA, Cy5 (dsDNA)
DNA 1: GAACATGTTCGAACATGTTC
DNA 2: GAACATGTTCGAACATGTTC
B2: p21 20-mer DNA, unlabeled (dsDNA)
DNA 1: GAACATGTTCGAACATGTTC
DNA 2: GAACATGTTCGAACATGTTC

Tests used:
[1] = biological target: p53 DBD (Homo sapiens, UniProt P04637 88-312); test: fluorescence anisotropy
Sequence of p53 DBD (P04637 88-312): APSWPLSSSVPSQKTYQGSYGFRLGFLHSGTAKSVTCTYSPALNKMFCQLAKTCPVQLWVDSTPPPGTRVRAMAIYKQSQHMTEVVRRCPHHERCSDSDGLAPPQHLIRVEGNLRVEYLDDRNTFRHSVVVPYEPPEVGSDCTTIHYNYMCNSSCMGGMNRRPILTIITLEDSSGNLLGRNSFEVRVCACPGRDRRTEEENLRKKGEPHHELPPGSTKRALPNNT

[2] = biological target: T1, p23; test: NMR DOSY

Binder	Kd [1] [µM]	binding result [2]
B1	0.045 ± 0.007	
B2		no binding

— publication PMC5811392
